Article doi:10.1101/2020.04.08.026906

Biological target: C3b (UniProt P01024)
Assay: SPR

Sequence of UniProt P01024 (P01024 whole entry, looked up): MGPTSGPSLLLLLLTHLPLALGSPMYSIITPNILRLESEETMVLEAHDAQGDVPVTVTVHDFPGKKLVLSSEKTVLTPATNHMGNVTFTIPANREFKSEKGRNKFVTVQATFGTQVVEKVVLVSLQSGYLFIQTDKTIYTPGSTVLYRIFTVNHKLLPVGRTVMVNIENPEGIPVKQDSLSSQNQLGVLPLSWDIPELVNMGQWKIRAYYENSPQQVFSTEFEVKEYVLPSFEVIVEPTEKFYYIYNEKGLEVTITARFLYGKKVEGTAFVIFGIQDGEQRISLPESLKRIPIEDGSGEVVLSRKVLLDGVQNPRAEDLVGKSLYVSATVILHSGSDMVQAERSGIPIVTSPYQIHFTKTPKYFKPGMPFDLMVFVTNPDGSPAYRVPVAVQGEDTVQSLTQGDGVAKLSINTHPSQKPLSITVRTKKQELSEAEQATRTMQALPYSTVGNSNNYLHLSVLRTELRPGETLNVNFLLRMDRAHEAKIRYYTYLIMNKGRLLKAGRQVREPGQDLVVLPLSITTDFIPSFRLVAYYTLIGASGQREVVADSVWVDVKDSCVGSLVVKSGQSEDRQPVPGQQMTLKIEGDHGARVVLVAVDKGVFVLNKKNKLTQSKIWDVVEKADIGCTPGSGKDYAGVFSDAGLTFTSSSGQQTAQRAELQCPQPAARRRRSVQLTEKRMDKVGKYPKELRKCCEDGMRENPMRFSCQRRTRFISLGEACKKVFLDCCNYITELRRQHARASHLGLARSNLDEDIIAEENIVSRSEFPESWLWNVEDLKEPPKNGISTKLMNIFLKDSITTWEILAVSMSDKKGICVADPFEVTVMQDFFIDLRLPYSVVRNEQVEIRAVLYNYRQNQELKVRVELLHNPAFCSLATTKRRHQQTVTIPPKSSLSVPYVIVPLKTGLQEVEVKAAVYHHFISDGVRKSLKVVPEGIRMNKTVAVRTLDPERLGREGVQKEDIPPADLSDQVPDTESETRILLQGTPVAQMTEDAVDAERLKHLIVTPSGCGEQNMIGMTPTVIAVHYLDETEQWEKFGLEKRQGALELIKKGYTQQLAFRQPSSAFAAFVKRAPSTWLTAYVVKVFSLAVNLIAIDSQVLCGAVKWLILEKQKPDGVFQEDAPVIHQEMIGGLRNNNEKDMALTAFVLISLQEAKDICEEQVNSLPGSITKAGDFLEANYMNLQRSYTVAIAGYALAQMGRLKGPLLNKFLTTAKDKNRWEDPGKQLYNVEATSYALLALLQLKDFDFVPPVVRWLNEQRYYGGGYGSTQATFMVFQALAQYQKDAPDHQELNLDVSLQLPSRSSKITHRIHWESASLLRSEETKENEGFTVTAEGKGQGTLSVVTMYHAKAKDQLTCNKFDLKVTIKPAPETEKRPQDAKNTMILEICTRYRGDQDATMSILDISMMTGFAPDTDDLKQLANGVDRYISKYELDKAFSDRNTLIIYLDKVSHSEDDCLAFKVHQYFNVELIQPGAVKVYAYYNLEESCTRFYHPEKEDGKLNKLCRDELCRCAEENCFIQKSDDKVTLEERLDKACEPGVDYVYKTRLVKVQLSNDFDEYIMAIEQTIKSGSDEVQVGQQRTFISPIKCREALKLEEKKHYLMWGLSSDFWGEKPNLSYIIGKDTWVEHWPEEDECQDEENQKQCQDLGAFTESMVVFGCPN

plasma derived Factor H (from UniProt P08603 19-1231) (natural protein)
KD with anti-FH.07.1 Fab' fragments: 1.9 µM
Kd: 6 µM
